US8247376B2, “NGAL for reduction and amelioration of ischemic and nephrotoxic injuries” (The Trustees of Columbia University, priority 2004, dated 2012)
“Also recorded” adds a separate entry of the source.

Experiments:
[1] = tested on: endogenous NGAL; assay: Endogenous NGAL expression after exogenous NGAL (real time PCR, immunoblot); assay type: in vivo, mice; set-up: reduction of the increase in endogenous NGAL RNA / reduction of endogenous NGAL protein in the kidney: dose or concentration left out as unconfirmed
Description: (§1) After 6 or 24 hr of reperfusion, heparinized plasma, urine and kidney samples were obtained to measure NGAL (polyclonal 1:500), Heme oxygenase-1 (Stressgen, 1:2000), E-cadherin (BD Transduction Labs, 1:2000), N-cadherin (BD Transduction Labs, 1:3000) and GAPDH (Chemicon International, 1:3000) using immunoblots. Plasma was also used for creatinine and blood urea nitrogen colorimetric assays. Sagittal sections of the kidney were fixed in 4% formalin, or were snap frozen for mRNA and protein analysis. Paraffin-embedded sections (5 μm) were stained with hematoxylin-eosin or by an in situ kit (Fluorescein-TUNEL, Roche) for apoptotic nuclei or for total nuclei (Toprol, Molecular Probes). For cell proliferation analysis, BrdU was injected into the peritoneum 1 hour before sacrifice, and cryostat sections were stained with anti-BrdU (Roche) according to the manufacturer.
Total RNA was extracted from mouse kidneys using RNeasy mini kit (Qiagen) with on-column DNase digestion according to the manufacturer's instructions. The cDNA template was synthesized using Omniscript Reverse Transcriptase and oligo-dT primer (Qiagen). The PCR reaction was carried out using iQ SYBR green super mix and MyiQ single-color real-time PCR detection system (Biorad) with incubation times of 2 min at 95° C., followed by 40 cycles of 95° C./30 s and 60° C./30 s. Specificity of the amplification was checked by melting curve analysis and by agarose gel electrophoresis. Primer sequences for mouse NGAL mRNA (Genbank NM_008491) were […] (forward primer, positions 93-112) and […] (reverse, 576-557). Sequences for mouse β-actin mRNA (Genbank X03672) were […] (forward, 415-434) and […] (reverse, 696-677). Each plate included a dilution series of standard sample, which was used to determine mRNA quantities. The NGAL mRNA content was normalized by β-actin mRNA.

[2] = tested on: cortical tubules; assay: BrdU uptake: percent of cortical tubules with BrdU-positive cell; assay type: in vivo, mice; settings: NGAL pretreated, 24 hours after insult; ischemic 1.9%, sham 3.7%
Description: as §1

[3] = tested on: ischemia-reperfusion injury in mice; assay: Histopathology scoring of tubule damage (dilatation, casts, necrosis) after ischemia-reperfusion; assay type: in vivo; settings: NGAL before, during or after ischemia, 24 h reflow, vs saline controls
Protocol: Purified endotoxin-free NGAL was administered either intravenously into mice via tail vein injections, subcutaneously, or intraperitoneally. In preliminary studies, animals were treated with three different concentrations of NGAL (50, 100, or 250 μg of a 250 μg/100 solution), subjected to 30 minutes of bilateral renal artery clamping one hour later, and examined after 24 hours of reflow. […] All subsequent studies as reported here were carried out using the 250 μg dose of NGAL. […]
Kidney sections of 4 microns were stained with hematoxylin-eosin and scored for histopathologic damage to the tubules in a blinded fashion, as previously described by Yokota N. et al., Am J Physiol Renal Physiol 285: F319-F325, 2003 and Kjeldsen L. et al., Biochim Biophys Acta 1482: 272-283, 2000. Each parameter was assessed in five high power fields (40×) in the inner cortex and outer medullary regions (where the tubular damage was most evident), and an average determined for each section. […] Each parameter was scored on a scale of 0 to 4, ranging from none (O), mild (1), moderate (2), severe (3), to very severe/extensive (4).

[4] = tested on: tubule epithelial cells; assay: TUNEL apoptosis assay on kidney sections (nuclei per 100 cells); assay type: in vivo, mice; settings: 24 h reflow
Protocol: Purified endotoxin-free NGAL was administered either intravenously into mice via tail vein injections, subcutaneously, or intraperitoneally. In preliminary studies, animals were treated with three different concentrations of NGAL (50, 100, or 250 μg of a 250 μg/100 solution), subjected to 30 minutes of bilateral renal artery clamping one hour later, and examined after 24 hours of reflow. […] All subsequent studies as reported here were carried out using the 250 μg dose of NGAL. Comparisons were made between five different animal groups: non-ischemic controls (n=8), ischemic controls pre-treated with saline alone (n=8), NGAL pre-treated one hour prior to renal artery clamping (n=6), NGAL treated during renal artery clamping (n=6), and NGAL treated one hour post renal artery clamping (n=6).
For the TUNEL assay to detect apoptotic nuclei, we utilized the ApoAlert DNA Fragmentation Assay Kit (Clontech). Paraffin sections were deparaffinized through zylene and descending grades of ethanol, fixed with 4% formaldehyde/PBS for 30 min at 4° C., permeabilized with proteinase K at room temperature for 15 min and 0.2% triton X-100/PBS for 15 min at 4° C., and incubated with a mixture of nucleotides and TdT enzyme for 60 min at 37° C. The reaction was terminated with 2×SSC, the sections washed with PBS, and mounted with Crystal/mount (Biomeda, Foster City, Calif.). TUNEL-positive apoptotic nuclei were detected by visualization with a fluorescent microscope. […] Merely TUNEL positive cells, in the absence of morphologic criteria, were not considered apoptotic. Slides were examined in a blinded fashion, and apoptosis was quantified by counting the number of TUNEL positive nuclei per 100 cells counted in an average of five high power (40×) fields in each section.

[5] = tested on: heme oxygenase-1 (HO-1); assay: Heme oxygenase-1 immunoblot of kidney; assay type: in vivo, mice
Description: as §1

[6] = tested on: N-cadherin; assay: N-cadherin immunofluorescence and immunoblot in ischemic kidney; assay type: in vivo, mice; settings: pre-treatment with NGAL, 6 or 24 hours of reperfusion
Description: as §1

[7] = tested on: mouse model of ATN or ischemia/reperfusion injury; assay: Mouse model of ATN (30 min clamp, contralateral nephrectomy): plasma creatinine; assay type: in vivo, mice
Protocol: (§2) Male C57BL/6 mice (20-25 gr; Charles River) were anesthetized with intraperitoneal pentobarbital (50 mg/kg) and placed on a heating pad under a warming light to maintain 37© core body temperature. Kidneys were exposed through an abdominal section and the right kidney was either removed or its vascular pedicle and ureter ligated. The vascular pedicle of the left kidney or both kidneys was clamped by a microaneurysm clip (Kent Scientific) for 30 minutes after right nephrectomy. This period of ischemia generated reproducible renal injury but minimized mortality. During the procedure, PBS (0.5 ml) was used to dampen the peritoneum. The animal was closed with 5-0 Nylon. Saline, NGAL, retinol-loaded retinol binding protein (RBP), enterochelin, or desferroxamine mesylate (DFO) were injected into the peritoneum or subcutaneously 15 min. prior to ischemia or 1-2 hr after reperfusion.
as §1

[8] = tested on: cortical tubules; assay: Fluorescein-TUNEL: percentage of cortical tubules with TUNEL-positive cell; assay type: in vivo, mice; settings: 24 h after reperfusion, SEM; ischemic 11.5%, sham 0.5%
Description: as §1

[9] = tested on: mouse model of ATN or ischemia/reperfusion injury; assay: Kidney histology in mouse ATN model; assay type: in vivo, mice; settings: NGAL-treated ATN kidneys vs ATN
Protocol: as §2
After 6 or 24 hr of reperfusion, heparinized plasma, urine and kidney samples were obtained to measure NGAL (polyclonal 1:500), Heme oxygenase-1 (Stressgen, 1:2000), E-cadherin (BD Transduction Labs, 1:2000), N-cadherin (BD Transduction Labs, 1:3000) and GAPDH (Chemicon International, 1:3000) using immunoblots. Plasma was also used for creatinine and blood urea nitrogen colorimetric assays. Sagittal sections of the kidney were fixed in 4% formalin, or were snap frozen for mRNA and protein analysis. […]

B1: NGAL: Purified endotoxin-free recombinant NGAL expressed as GST fusion protein in bacteria, thrombin cleaved (protein, UniProt P80188 21-198, looked up)
Neutrophil …: QDSTSDLIPAPPLSKVPLQQNFQDNQFQGKWYVVGLAGNAILREDKDPQKMYATIYELKEDKSYNVTSVLFRKKKCDYWIRTFVPGCQPGEFTLGNIKSYPGLTSYLVRVVSTNYNQHAMVFFKKVSQNREYFKITLYGRTKELTSELKENFIRFSKSLGLPENHIVFPVPIDQCIDG
reduction of the increase in endogenous NGAL RNA ([1]; 24 hours of reperfusion, real time PCR): 72%±16 | endogenous NGAL protein in the kidney ([1]; NGAL-treated ischemia, ischemia 73±7): 29 ± 7 µg/g | reduction of endogenous NGAL protein in the kidney ([1]; immunoblot): 2.5 fold | percent of cortical tubules with at least one BrDU-positive tubular cell [2]: 3.9%±0.5 | histopathologic score (dilatation, casts, cell necrosis; scale 0 to 4) [3]: significantly improved score | apoptotic tubule epithelial cells (TUNEL-positive nuclei per hundred cells) ([4]; NGAL during ischemia): 7.6%±0.8 | apoptotic tubule epithelial cells (TUNEL-positive nuclei per hundred cells) ([4]; NGAL one hour after ischemia): 8.5%±0.8 | apoptotic tubule epithelial cells (TUNEL-positive nuclei per hundred cells) ([4]; NGAL one hour before ischemia, saline 12.6%±2.2): 6.7%±1.6 | upregulation of HO-1 over ATN alone ([5]; ATN-injured mice, 10-100 μg NGAL, 24 hours after reperfusion): 5-10 fold | expression of HO-1 after NGAL injection ([5]; healthy mice (Sham), increasing doses of NGAL): much less than the NGAL-treated ATN-injured kidneys | N-cadherin expression in ischemic kidney [6]: preserved N-cadherin immunofluorescence, enhanced the expression of full length N-cadherin and reduced the appearance of its fragment; also recorded: rescued | plasma creatinine 24 hours after reperfusion ([7]; 1 μg NGAL (not protective)): 3.09 ± 0.11 mg/dL | plasma creatinine 24 hours after reperfusion ([7]; 100 μg NGAL 15 minutes before clamping, untreated 3.16±0.17): 1.18 ± 0.18 mg/dL | plasma creatinine ([7]; NGAL 2 hours after ischemia (no protective effect)): 3.12 ± 0.35 mg/dL | plasma creatinine 24 hours after reperfusion ([7]; NGAL one hour after reperfusion): 1.60 ± 0.28 mg/dL | protection against ATN (creatinine, FIG. 17A) ([7]; administered later than one hour after ischemia): ineffective | percentage of cortical tubules with at least one TUNEL-positive tubular cell [8]: 2.9%±0.9 | kidney histology (tubule morphology) [9]: normal epithelial morphology was preserved in the S1 and S2 segments of the proximal tubule; also recorded: preservation of cortical tubules, but residual cortical-medullary casts
